Measured values reported in patent publication US20230250157A1 (published 2023).

How the values were obtained:
Test in all cases: ELISA
SARS-CoV-2 Beta RBD = SARS-CoV-2 Beta RBD (SARS-CoV-2 Beta)
SARS-CoV-2 Delta RBD = SARS-CoV-2 Delta RBD (SARS-CoV-2 Delta)
[1] = molecular target: SARS-CoV-2 Omicron BA.2 RBD (SARS-CoV-2 Omicron BA.2)
[2] = molecular target: SARS-CoV-2 Omicron BA.1 RBD (SARS-CoV-2 Omicron BA.1)

Measured: EC50

B1: M8a-7 (antibody, V domains shown)
VH: QAYLQQSGAEMVRPGASVKMSCKASGYTFNNYNMHWVKQTPSQGLEWIGGFYPGNDDTAYSQKFKGKATLTVDKSSSTAFMHLSSLTSEDSAVYFCARSLGRYYAMDYWGQGTSVTVSS
VL: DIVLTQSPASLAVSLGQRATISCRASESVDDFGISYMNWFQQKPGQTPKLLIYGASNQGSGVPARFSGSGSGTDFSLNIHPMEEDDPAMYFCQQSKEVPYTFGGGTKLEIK
> 10 µg/mL: all assays above

B2: M8a-29 (antibody, V domains shown)
VH: EVQLQQSVAELVRPGASVKLSCTASGFNIKNTYMHWVKQRPEQGLEWIGRIDPSIDHTRYAPKFQGKAVITAFTSSNTAYLQLSSLTSEDTAIYYCAREGGGNYPYYYAIDYWGQGTSVTVSS
VL: DIVMTQAAFSNPVTLGTSASISCRSTKSLLHSNGITYLYWYLQKPGQSPQLLIYQMSNLASGVPDRFSSSGSGTDFTLRISRVEAEDVGVYYCAQNLELPYTFGGGTKLEIK
> 10 µg/mL: all assays above

B3: M8a-25 (antibody, V domains shown)
VH: EVQLQQSVAELVRPGASVKLSCTASGFNIKNTYMHWVKQRPEQGLEWIGRIDPSIDHTRYAPKFQGKAVITAFTSSNTAYLQLSSLTSEDTAIYYCAREGGGNYPYYYAIDYWGQGTSVTVSS
VL: DIQMTQSSSSFSVSLGDRVTITCKASEDIYIRLAWYQQRPGNAPRLLISNAISLETGVPSRFSGSGFGKDHTLSITSLQTEDVATYYCQQYWSTPWTFGGGTKLEIK
> 10 µg/mL: all assays above

B4: M8a-15 (antibody, V domains shown)
VH: QVQLQQSGPELARPGASVKLSCRASGYTVTSFGLSWMKQRTGQGLEWIGEIYPTSKNTYYNDKFRTKATLTADKSSSTAYMELRSLTSEDSAVYFCVLYDYFDYWGQGTTLTVSS
VL: QIVLTQSPAIMSASPGEKVTISCSASSSVSYMYWYQQKTGSSPKPWIYRTSNLASGVPVRFSGSGSGTSYSLTISSMEAEDAATYYCQQYQSYPRTFGGGTKLEIK
> 10 µg/mL: all assays above

B5: M8a-11 (antibody, V domains shown)
VH: EVQLQQSGPELVKPGASVKIPCKASGYTFTDYNMDWVKQSHEKSLEWIGEIDPNNGDTIYNQKFKGKASLTVDKSSSTAYMELRSLTSEDTAVYYCAKRGYYGSSLWWYFDVWGTGTTVTVSS
VL: DIQMTQSSSSFSVSLGDRVTITCKASEDIYIRLAWYQQRPGNAPRLLISNAISLETGVPSRFSGSGSGKDYTLSITSLQTEDVATYYCQQYWSTPWTFGGGTKLEIK
> 10 µg/mL: all assays above

B6: M8a-30 (antibody, V domains shown)
VH: QVHLQQSGPELVKPGASVKISCKASGYGFSSSWMNWVKQRPGKGLEWIGRIYPGDGDTNYNDKFQGKATLTADRSSSTAYMHLTSLTSADSAVYFCARSLLYSFDYWGQGTTLTVSS
VL: DVVVTQTPLSLPVSFGDQVSISCRSSQSLAGSYGHTYLSWYLHKSGQSPQLLIYGISNRFSGVPDRFSGSGSGTDFTLKISTIKPEDLGMYYCLQGTHQPLTFGAGTKLELK
> 10 µg/mL: SARS-CoV-2 Beta RBD | [1] | [2]
